Experimental data: article PMC8914513

Columns and labels:
[1] = target: serine hydroxymethyltransferase, cytosolic (SHMT1), His-tagged, immobilised in QCM-D (UniProt P34896); assay: QCM-D (quartz crystal microbalance with dissipation monitoring); two proteins: 5 uM His-tagged SHMT immobilised on His-tag capturing sensor QSX340; tagless ligand introduced (0.1-1.0 uM or 0.5-7.0 uM for TS, pTS or DHFR); 20 mM Tris-HCl pH 7.6, 100 mM (salt not given), 10 mM MgCl2, 0.05% Tween 20, 25 C, 200 ul/min; Langmuir isotherm fit
[2] = target: CK2alpha-phosphorylated thymidylate synthase fraction (pTS), as used in MST (human) (UniProt P04818); assay: MST; two proteins in solution, Premium capillaries: labeled DHFR with SHMT 157 uM-4.79 nM; labeled SHMT with TS 62.0 uM-1.9 nM; labeled pTS with SHMT 157 uM-4.79 nM; Kd model fit
[3] = target: DHFR (Homo sapiens) (UniProt P00374); assay: MST; settings: cited from earlier work
[4] = target: DHFR (Homo sapiens) (UniProt P00374); assay: QCM-D; settings: cited from earlier work

thymidylate synthase, sequence (P04818 2-313): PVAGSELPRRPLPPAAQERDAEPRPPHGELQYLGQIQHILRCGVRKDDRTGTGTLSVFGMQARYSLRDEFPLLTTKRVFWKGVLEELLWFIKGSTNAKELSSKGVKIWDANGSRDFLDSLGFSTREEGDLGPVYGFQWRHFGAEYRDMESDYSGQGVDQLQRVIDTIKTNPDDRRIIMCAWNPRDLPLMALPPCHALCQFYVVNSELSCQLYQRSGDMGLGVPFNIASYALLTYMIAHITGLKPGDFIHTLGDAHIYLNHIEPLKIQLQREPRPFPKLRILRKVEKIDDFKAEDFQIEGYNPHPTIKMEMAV
DHFR (Homo sapiens), sequence (P00374 whole entry): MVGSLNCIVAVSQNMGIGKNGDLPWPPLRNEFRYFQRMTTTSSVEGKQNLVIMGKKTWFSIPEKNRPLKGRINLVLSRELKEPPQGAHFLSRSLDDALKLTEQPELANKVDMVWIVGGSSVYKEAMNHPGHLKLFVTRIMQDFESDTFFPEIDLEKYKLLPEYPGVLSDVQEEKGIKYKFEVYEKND
serine hydroxymethyltransferase, cytosolic (SHMT1), His-tagged, immobilised in QCM-D, sequence (P34896 whole entry): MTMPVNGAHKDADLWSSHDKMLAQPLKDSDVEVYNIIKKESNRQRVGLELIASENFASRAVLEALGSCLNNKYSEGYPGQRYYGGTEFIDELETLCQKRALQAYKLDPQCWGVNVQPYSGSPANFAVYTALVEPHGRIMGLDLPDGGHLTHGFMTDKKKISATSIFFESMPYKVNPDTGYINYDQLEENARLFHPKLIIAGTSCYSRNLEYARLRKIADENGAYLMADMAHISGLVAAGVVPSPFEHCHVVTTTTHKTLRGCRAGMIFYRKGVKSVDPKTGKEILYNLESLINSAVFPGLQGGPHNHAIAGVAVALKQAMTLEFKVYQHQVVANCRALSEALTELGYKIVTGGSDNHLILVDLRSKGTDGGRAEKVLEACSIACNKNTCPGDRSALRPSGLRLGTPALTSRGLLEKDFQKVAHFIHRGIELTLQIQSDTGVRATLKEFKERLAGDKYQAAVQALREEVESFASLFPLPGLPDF
CK2alpha-phosphorylated thymidylate synthase fraction (pTS), as used in MST (human), sequence (P04818 whole entry): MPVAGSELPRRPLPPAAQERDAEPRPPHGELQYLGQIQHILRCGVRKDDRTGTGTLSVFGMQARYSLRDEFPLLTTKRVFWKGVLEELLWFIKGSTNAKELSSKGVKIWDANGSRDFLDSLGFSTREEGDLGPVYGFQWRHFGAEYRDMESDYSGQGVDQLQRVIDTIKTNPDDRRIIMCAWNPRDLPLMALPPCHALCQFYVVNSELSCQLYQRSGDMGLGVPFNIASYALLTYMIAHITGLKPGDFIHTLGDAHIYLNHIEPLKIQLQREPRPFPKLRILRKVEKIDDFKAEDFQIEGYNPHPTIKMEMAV

## CK2alpha-phosphorylated thymidylate synthase fraction (pTS), tagless ligand in QCM-D (from UniProt P04818 1-313) (enzyme)
[1]
  Kd: 5.35 µM

## serine hydroxymethyltransferase, cytosolic (SHMT1), as used in MST (from UniProt P34896 1-483) (enzyme)
[2]
  Kd: 0.219 µM

## thymidylate synthase (from UniProt P04818)
[3]
  Kd: 2.8 µM
[4]
  Kd: 7.6 µM
